Patent publication US20100196361A1, “Method of inhibition of vascular development using an antibody” (DYAX CORP., priority 2003, published 2010)

Experiments:
[1] = molecular target: Tie1 (Homo sapiens, UniProt P35590); assay: Competition with E3 for binding to Tie1
[2] = molecular target: T1, human Tie1 Fc (Homo sapiens, UniProt P35590); assay: BIAcore, Fab over Tie1/Fc coated on CM5 chip; type: binding; conditions: Fab analyte
T1 construct: selected against the Tie1 extracellular domain fused to human Fc or to a histidine purification tag
T1 sequence (P35590 22-759 limits assumed): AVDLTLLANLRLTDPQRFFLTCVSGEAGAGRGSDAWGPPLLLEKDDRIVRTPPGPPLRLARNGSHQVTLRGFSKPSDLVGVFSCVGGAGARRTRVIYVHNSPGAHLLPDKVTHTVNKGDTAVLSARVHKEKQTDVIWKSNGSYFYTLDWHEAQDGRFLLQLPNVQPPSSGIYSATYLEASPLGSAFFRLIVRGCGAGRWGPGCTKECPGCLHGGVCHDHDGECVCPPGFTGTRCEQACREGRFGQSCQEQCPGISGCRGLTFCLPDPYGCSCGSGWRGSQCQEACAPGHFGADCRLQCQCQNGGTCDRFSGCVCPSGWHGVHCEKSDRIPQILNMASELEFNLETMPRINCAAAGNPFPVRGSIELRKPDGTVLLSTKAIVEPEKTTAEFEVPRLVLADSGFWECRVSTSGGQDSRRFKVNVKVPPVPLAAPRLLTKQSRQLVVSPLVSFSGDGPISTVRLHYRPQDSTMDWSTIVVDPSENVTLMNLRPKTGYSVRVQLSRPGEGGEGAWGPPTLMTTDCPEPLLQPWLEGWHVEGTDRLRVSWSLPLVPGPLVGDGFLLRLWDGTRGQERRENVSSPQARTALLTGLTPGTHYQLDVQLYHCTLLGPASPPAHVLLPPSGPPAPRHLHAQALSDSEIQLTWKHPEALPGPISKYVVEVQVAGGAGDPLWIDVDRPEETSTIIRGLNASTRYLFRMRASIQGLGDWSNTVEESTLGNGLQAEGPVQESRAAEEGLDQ
Text: To evaluate if the binding behaviour had been affected in any way by the conversion of the somatic mutations back to germline residues, the parental and the germlined E3b antibodies were produced and tested in Biacore as Fab fragments. Here, by contrast to what was done for the IgGs (see Example 28), and in order to measure a monovalent interaction, the Fabs were run over the antigen directly coated onto the surface.
Recombinant human Tie1/Fc was coated on a CM5 chip. The surface of the chip was first activated with a 7-minute pulse of 0.05 M NHS/0.2 M EDC, then Tie1/Fc (2 μg/ml in 10 mM sodium acetate, pH 4.0) was run over the chip surface until 750 RUs were coated on the surface. All flow cells were subsequently deactivated with a 7-minute pulse of 1 M ethanolamine hydrochloride, pH 8.5. All further experiments were performed in HBS buffer.
The parental and the germlined E3b Fabs were prepared. A series of dilution (50, 25, 12.5, 6.25 and 3.125 nM) was prepared in HBS buffer. Samples were injected at 30 μl/min for 5.3 minutes using the KINJECT™ program. This was followed by a 10-minute dissociation phase, and the remaining Fab was stripped from the surface with a single 18-sec injection of 50 mM NaOH/1 M NaCl.
Sensorgrams were analyzed using the simultaneous ka/kd fitting program from the BIAEVALUATION™ software 3.1 assuming a 1:1 model.

[3] = molecular target: T2, human Tie1-Fc fusion protein (Homo sapiens, UniProt P35590); assay: BIAcore 3000 affinity analysis of Fab and IgG; type: binding
T2 construct: selected against the Tie1 extracellular domain fused to human Fc or to a histidine purification tag
T2 sequence (P35590 22-759 limits assumed): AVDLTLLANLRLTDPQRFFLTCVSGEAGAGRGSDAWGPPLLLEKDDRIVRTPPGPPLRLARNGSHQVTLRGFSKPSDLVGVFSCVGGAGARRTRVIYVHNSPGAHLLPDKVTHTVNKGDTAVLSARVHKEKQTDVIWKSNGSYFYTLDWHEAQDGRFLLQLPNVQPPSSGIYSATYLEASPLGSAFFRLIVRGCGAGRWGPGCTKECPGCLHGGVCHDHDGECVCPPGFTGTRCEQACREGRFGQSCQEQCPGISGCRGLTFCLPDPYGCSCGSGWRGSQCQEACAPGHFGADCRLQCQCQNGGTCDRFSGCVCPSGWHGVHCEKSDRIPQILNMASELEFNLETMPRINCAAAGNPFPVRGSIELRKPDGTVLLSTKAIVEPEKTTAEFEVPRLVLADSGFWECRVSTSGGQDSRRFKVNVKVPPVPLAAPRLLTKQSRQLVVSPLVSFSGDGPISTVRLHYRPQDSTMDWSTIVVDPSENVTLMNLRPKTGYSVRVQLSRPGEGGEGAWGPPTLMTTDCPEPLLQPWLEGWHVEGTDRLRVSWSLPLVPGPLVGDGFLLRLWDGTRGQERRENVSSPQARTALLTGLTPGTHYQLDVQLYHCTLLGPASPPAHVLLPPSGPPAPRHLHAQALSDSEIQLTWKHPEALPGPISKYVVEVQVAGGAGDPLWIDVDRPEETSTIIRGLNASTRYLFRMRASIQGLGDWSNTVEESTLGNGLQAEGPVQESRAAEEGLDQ
Experimental: Affinity analysis of the Fab and IgGs was performed using surface plasmon resonance using a BIAcore 3000 instrument. For this analysis both dimeric (Tie1-Fc fusion protein) and monomeric (Tie1-HIS) versions of the extracellular domain of the Tie1 were used. The sensor chips used in these experiments were CM5 (dextran-coated) which allow immobilization of proteins to the chip via standard amine coupling chemistries. The concentration of flowed antibody was determined using a surface plasmon resonance based method. Using a high-density protein A sensor chip, under mass transport limited conditions, the response signal is dependent only on the concentration of the antibody in the sample under test. This approach allows a precise determination of the antibody concentration, a parameter important for accurate determination of the KD.
470 RUs of Tie1 HIS protein were coated on a CM5 sensor chip and 5, 20, 100, and 500 nM of the Fab flowed over the chip at four different flow rates ([…]), rates in which the system is not mass transport limited. Kinetic data was typically determined using a range of analyte concentrations and three different chip coating densities. The data from the lowest coating density that gave a good signal was typically chosen, this was often in a range from 50-100 RUs. Using such low coating densities allowed the sensor curves to be fit using BIAEVALUATION™ 3.0 software to a 1:1 model, often even when using a bivalent analyte (IgG or Tie1-Fc fusion protein). For bivalent analytes, when fit to a 1:1 model was not possible, the curves were fit using a 2:1 model.
The anti-Tie1 antibodies described here bind to both human and mouse Tie1 molecules. The binding of the anti-Tie1 Fab to mouse Tie1-Fc fusion protein was compared with the binding of the anti-Tie1 Fab to human Tie1-Fc fusion protein. In both of these experiments the Tie1-Fc fusion protein was immobilized on the sensor chip and the anti Tie-1 Fab served as the analyte. Under these experimental conditions the anti-Tie1 Fab has very similar KD (˜3 nM) values for both the human and mouse Tie1-Fc fusion proteins (Table 9). Under conditions that are likely to mimic those used in the animal efficacy experiments, i.e. Tie1-Fc immobilized to the CM5 sensor chip and anti-Tie1 used as the analyte, the measured KD was 0.2 nM.

Sequence of Tie1 (P35590 22-1138): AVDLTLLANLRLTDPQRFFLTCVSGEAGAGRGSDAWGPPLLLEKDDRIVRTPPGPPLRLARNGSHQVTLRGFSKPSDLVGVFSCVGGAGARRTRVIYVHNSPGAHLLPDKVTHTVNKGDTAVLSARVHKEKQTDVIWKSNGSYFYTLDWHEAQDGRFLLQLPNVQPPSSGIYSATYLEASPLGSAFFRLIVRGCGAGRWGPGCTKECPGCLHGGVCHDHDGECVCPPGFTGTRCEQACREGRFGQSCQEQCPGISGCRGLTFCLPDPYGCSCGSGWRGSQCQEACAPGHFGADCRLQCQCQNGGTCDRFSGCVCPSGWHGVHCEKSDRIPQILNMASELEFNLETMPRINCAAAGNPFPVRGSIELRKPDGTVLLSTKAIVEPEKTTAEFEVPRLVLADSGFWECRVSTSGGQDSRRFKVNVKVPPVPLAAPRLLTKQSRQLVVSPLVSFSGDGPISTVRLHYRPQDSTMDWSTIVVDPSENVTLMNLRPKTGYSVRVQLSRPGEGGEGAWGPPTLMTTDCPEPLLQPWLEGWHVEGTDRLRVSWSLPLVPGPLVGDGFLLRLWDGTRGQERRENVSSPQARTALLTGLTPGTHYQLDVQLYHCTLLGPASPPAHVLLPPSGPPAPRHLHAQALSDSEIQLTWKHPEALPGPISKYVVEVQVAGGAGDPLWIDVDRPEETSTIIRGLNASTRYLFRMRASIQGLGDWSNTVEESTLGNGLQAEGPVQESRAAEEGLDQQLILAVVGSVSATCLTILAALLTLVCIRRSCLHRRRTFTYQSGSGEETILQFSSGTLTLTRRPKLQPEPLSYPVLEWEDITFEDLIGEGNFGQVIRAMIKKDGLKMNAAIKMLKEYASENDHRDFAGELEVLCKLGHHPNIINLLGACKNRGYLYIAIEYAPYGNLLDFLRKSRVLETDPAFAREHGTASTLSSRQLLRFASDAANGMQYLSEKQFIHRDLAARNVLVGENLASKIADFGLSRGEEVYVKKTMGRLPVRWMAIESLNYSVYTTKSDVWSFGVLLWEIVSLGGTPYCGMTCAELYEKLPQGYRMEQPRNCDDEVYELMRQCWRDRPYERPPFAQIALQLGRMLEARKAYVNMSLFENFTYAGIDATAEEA

B1: M0058F03: Tie1-binding antibody; LC SEQ ID NO:604, HC SEQ ID NO:606 (antibody, V domains shown)
VH: EVQLLESGGGLVQPGGSLRLSCAASGFTFSDYGMAWVRQAPGKGLEWVSVISPSGGQTAYADSVKGRFTISRDNSKNTLYLQMNSLRAEDTAVYYCATVRWFGAFDYWGQGTLVTVSS
VL: QDIQMTQSPSTLSASVGDRVTITCRASQGISNYLAWYQQKPGKVPKLLIYGASNLQSGVSSRFSGSGSATDFTLTISSLQPEDFATYYCQQFNSYPLTFGGGTKVEIK
modifications: Antibody
competition with E3 for binding to Tie1 [1]: competes with E3 for binding to Tie1

B2: M0055E10: Tie1-binding antibody; LC SEQ ID NO:492, HC SEQ ID NO:494 (antibody, V domains shown)
VH: EVQLLESGGGLVQPGGSLRLSCAASGFTFSAYPMFWVRQAPGKGLEWVSVISPSGGQTSYADSVKGRFTISRDNSKNTLYLQMNSLRAEDTAVYYCAKSFSGLAALDFWGQGTLVTVSS
VL: QDIQMTQSPATLSLSPGERATLSCRASQSVRTYLGWYQQKHGQAPRLLIYDASNRATGIPARFSGSGSGTDFTLTISSLEPEDFAVYYCQQRSNWPLTFGGGTKVEIK
modifications: Antibody
competition with E3 for binding to Tie1 [1]: competes with E3 for binding to Tie1

B3: M0054H10: Tie1-binding antibody; LC SEQ ID NO:448, HC SEQ ID NO:450 (antibody, V domains shown)
VH: EVQLLESGGGLVQPGGSLRLSCAASGFTFSQYPMIWVRQAPGKGLEWVSVISPSGGHTSYADSVKGRFTISRDNSKNTLYLQMNSLRAEDTAVYYCARIQYYGGAFDIWGQGKMVTVSS
VL: QDIQMTQSPATLSLSPGERATLSCRASQSVSIYLAWYQQKPGQAPRLLIYDASNRATDIPARFSGSGSGTDFTLTISSLEPEDFAVYYCQQRSSWPITFGLGTRLEIK
modifications: Antibody
competition with E3 for binding to Tie1 [1]: competes with E3 for binding to Tie1

B4: M0060H01: Tie1-binding antibody; LC SEQ ID NO:628, HC SEQ ID NO:630 (antibody, V domains shown)
VH: EVQLLESGGGLVQPGGSLRLSCAASGFTFSYYPMVWVRQAPGKGLEWVSVIVPSGGFTAYADSVKGRFTISRDNSKNTLYLQMNSLRAEDTAMYYCARKRPGNAFDIWGQGTMVTVSS
VL: QDIQMTQSPATLSLSPGERATLSCRASQSVSSYLAWYQQKPGQAPRLLIYDASNRATGIPARFSGSGSGTDFTLTISSLEPEDFAVYYCQQRSNWPVTFGQGTRLEIK
modifications: Antibody
competition with E3 for binding to Tie1 [1]: competes with E3 for binding to Tie1

B5: E3b Fab: Fab with germlined HC and germlined LC sequence of E3 (antibody, V domains shown)
VH: EVQLLESGGGLVQPGGSLRLSCAASGFTFSMYGMVWVRQAPGKGLEWVSVISPSGGNTGYADSVKGRFTISRDNSKNTLYLQMNSLRAEDTAVYYCARAPRGYSYGYYYWGQGTLVTVSS
VL: DIQMTQSPSSLSASVGDRVTITCRASQGIGHYLAWYQQKPGKVPKLLIYTASTLQSGVPSRFSGSGSGTDFTLTISSLQPEDVATYYCQQFNSYPHTFGQGTRLEIK
koff ([2]; Human Tie1 Fc coated on CM5): 0.00101 s⁻¹ | kon ([2]; Human Tie1 Fc coated on CM5, 750 RU): 136000 M⁻¹ s⁻¹ | Kon [3]: 9300 M⁻¹ s⁻¹ | koff [3]: 4.41e-05 s⁻¹
